Results as given in patent US20210371823A1.

Molecular target: human MICA protein (hMICA) (human) (UniProt Q29983)
Test: cell-based or functional assay

UniProt Q29983, sequence (Q29983 24-383): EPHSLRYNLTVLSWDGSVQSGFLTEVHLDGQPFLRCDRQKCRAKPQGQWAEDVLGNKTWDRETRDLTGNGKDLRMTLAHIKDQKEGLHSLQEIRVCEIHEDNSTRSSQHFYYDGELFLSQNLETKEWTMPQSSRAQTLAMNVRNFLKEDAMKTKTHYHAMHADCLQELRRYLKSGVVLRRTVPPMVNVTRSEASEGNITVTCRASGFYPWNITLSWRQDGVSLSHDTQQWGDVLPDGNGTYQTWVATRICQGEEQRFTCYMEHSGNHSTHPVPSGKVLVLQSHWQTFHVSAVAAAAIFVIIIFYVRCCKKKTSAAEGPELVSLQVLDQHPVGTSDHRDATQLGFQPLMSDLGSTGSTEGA

activation receptor NKG2D on NK cells (from UniProt P26718 1-216)
killing effect of NK cells on 3T3-Luc/hMICA cells at effector-target ratio 1:1 (luciferase-based killing assay): 60%
